Where “and” joins values, the source holds several entries; their conditions need not be identical. Identical values can stand only once.

For orientation: EC50 means the concentration at which the effect is half-maximal. A high value points to weaker potency.

The target of experiment [1] is T1, murine FolR1 monovalent Fc fusion, biotinylated (murine, UniProt P35846 25-232, biotin on C-terminal Avi-tag ; Biotin on the C-terminal Avi-tag of the Fc-knob chain (that part is not in the letters).).
T1 construct: as m1; also called muFolR1; murine FolR1-Fc; not shown: IgG hinge, Fc-knob and C-terminal Avi-tag fused to the ECD, and the co-expressed Fc-hole chain
In words: SPR ProteOn, Fab analyte, antigen on chip. The procedure:
Immobilization of antigens (ligand): Recombinant antigens were diluted with PBST (10 mM phosphate, 150 mM sodium chloride pH 7.4, 0.005% Tween 20) to 10 μg/ml, then injected at 30 μl/minute in vertical orientation. Injection of analytes: For ‘one-shot kinetics’ measurements, injection direction was changed to horizontal orientation, two-fold dilution series of purified Fab (varying concentration ranges) were injected simultaneously along separate channels 1-5, with association times of 150 or 200 s, and dissociation times of 200 or 600 s, respectively. Buffer (PBST) was injected along the sixth channel to provide an “in-line” blank for referencing. Association rate constants (kₒₙ) and dissociation rate constants (koff) were calculated using a simple one-to-one Langmuir binding model in ProteOn Manager v3.1 software by simultaneously fitting the association and dissociation sensorgrams. The equilibrium dissociation constant (KD) was calculated as the ratio koff/kₒₙ.

For experiment [2], the target named is T2, human FolR1 on cells (HeLa, SKOV3, HT-29, transfected HEK) (human, UniProt P15328 25-234).
T2 construct: whole, on cells
Nature of the experiment: flow cytometry, tumor cell panel. A general note: Flow cytometry measures light scatter and fluorescence of single cells or particles in a stream.

In experiment [3] the target is T3, human BCMA on myeloma cells (H929, U266) (human, UniProt Q02223 1-184).
T3 construct: whole, on cells
T3 sequence (looked up): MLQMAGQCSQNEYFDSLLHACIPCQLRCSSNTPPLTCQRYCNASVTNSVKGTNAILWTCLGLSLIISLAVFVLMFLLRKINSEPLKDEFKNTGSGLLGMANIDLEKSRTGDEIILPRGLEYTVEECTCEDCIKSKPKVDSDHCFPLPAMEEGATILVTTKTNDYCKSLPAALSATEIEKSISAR
Nature of the experiment: flow cytometry on BCMA-positive H929 cells, PE anti-human Fc secondary antibody, median fluorescence intensity. The procedure: (§1) Briefly, cultured cells are harvested, counted and cell viability was evaluated using ViCell. Viable cells are then adjusted to 2×10⁶ cells per ml in BSA-containing FACS Stain Buffer (BD Biosciences). 100 μl of this cell suspension were further aliquoted per well into a round-bottom 96-well plate and incubated with 30 μl of the BCMA-TCB CLC antibodies or corresponding TCB control for 30 min at 4° c. All BCMA-TCB CLC antibodies (and TCB controls) were titrated and analyzed in final concentration range between 0.12-500 nM. […] Cells were then washed twice with Stain Buffer (BD Biosciences), fixed using 100 ul BD Fixation buffer per well (#BD Biosciences, 554655) at 4° C. for 20 min, resuspended in 120 μl FACS buffer and analyzed using BD FACS CantoII.

Experiment [4] has as its target T4, human FolR1 monovalent Fc fusion, biotinylated (human, UniProt P15328 25-233, biotin on C-terminal Avi-tag ; biotin on the C-terminal Avi-tag of the Fc-knob chain (tag not in the letters)).
T4 construct: ECD linked to hinge of Fc-knob, co-expressed with Fc-hole; also called huFolR1; huFolR1-Fc; not shown: hinge-Fc(knob)-Avi-tag fused to the ECD, and the co-expressed Fc(hole) chain
Nature of the experiment: SPR ProteOn, Fab analyte, antigen on chip. As for the experimental part: Immobilization of antigens (ligand): Recombinant antigens were diluted with PBST (10 mM phosphate, 150 mM sodium chloride pH 7.4, 0.005% Tween 20) to 10 μg/ml, then injected at 30 μl/minute in vertical orientation. Injection of analytes: For ‘one-shot kinetics’ measurements, injection direction was changed to horizontal orientation, two-fold dilution series of purified Fab (varying concentration ranges) were injected simultaneously along separate channels 1-5, with association times of 200 s, and dissociation times of 600 s. Buffer (PBST) was injected along the sixth channel to provide an “in-line” blank for referencing. Association rate constants (kₒₙ) and dissociation rate constants (koff) were calculated using a simple one-to-one Langmuir binding model in ProteOn Manager v3.1 software by simultaneously fitting the association and dissociation sensorgrams. The equilibrium dissociation constant (KD) was calculated as the ratio koff/kₒₙ.

In experiment [5] the target is T5, recombinant human BCMA Fc(kih) (human, UniProt Q02223 4-53, biotin on avi-tag where coupled to SA chip ; biotin on the avi-tag of the Fc-knob chain where coupled to the SA chip (tag not in the letters)).
T5 construct: also called huBCMA Fc(kih); huBCMA; not shown: human IgG1 hinge-Fc(knob)-avi fused to the ECD, and the unfused Fc(hole) chain
T5 chain: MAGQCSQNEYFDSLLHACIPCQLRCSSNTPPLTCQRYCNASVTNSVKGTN
Nature of the experiment: SPR Biacore, binder captured via anti-Fab, BCMA-Fc analyte. For orientation: In SPR one partner is held on a chip, and binding of the other changes the refractive index at the surface.

Experiment [6] addresses T6, recombinant murine BCMA Fc(kih) (murine, UniProt O88472 2-49, biotinylated at the avi-tag of the Fc knob chain (not in the letters)).
T6 construct: also called muBCMA Fc(kih); not shown: human IgG1 hinge-Fc(knob)-avi and the unfused Fc(hole) chain
T6 chain: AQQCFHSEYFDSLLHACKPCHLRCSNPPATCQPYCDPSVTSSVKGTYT
The description is as above.

Experiment [7] addresses T5, recombinant human BCMA Fc(kih). Nature of the experiment: SPR Biacore, bivalent avidity, BCMA-Fc on chip (Experiment 2). The procedure:
(§2) Assessment of binding of anti-BCMA antibodies to recombinant BCMA by surface plasmon resonance (SPR) as follow. All SPR experiments were performed on a Biacore T200 at 25° C. with HBS-EP as running buffer (0.01 M HEPES pH 7.4, 0.15 M NaCl, 3 mM EDTA, 0.005% Surfactant P20, Biacore, Freiburg/Germany). The avidity of the interaction between anti-BCMA antibodies and recombinant BCMA Fc(kih) (human, cynomolgus and murine) was determined (Tables 38-40). Biotinylated recombinant human, cynomolgus and murine BCMA Fc(kih) were directly coupled on a SA chip following instructions (Biacore, Freiburg/Germany). The immobilization level ranged from 80 to 120 RU. […] The dissociation was monitored for 180 seconds. Bulk refractive index differences were corrected for by subtracting the response obtained on the reference flow cell. Here, the anti-BCMA antibodies were flown over an empty surface previously activated and deactivated as described in the standard amine coupling kit. Apparent kinetic constants were derived using the Biacore T200 Evaluation Software (v 1.0, Biacore AB, Uppsala/Sweden), to fit rate equations for 1:1 Langmuir binding by numerical integration, despite the bivalency of the interaction for comparison purposes.

Experiment [8] has as its target T6, recombinant murine BCMA Fc(kih). The description is as above. The procedure:
as §2

For experiment [9], the target named is T5, recombinant human BCMA Fc(kih). In words: SPR Biacore, bivalent avidity, BCMA-Fc on chip (Experiment 3). The procedure: as §2
Experiment [10] has as its target T6, recombinant murine BCMA Fc(kih). The description is as above. The procedure:
as §2

For another experiment, the target named is T7, Fc fused huTACI-R (human, UniProt O14836 2-166, limits assumed).
T7 construct: also called human TACI receptor
T7 sequence (looked up): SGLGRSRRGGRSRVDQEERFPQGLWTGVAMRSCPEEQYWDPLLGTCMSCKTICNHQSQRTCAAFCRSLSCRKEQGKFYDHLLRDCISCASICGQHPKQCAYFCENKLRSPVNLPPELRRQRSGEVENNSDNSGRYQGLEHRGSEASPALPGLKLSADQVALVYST
In words: SPR (Biacore T200), Fc fused huTACI-R on CM5 chip, IgG as analyte, reference-subtracted.

The target of experiment [11] is T5, recombinant human BCMA Fc(kih). In words: SPR Biacore, bivalent avidity, BCMA-Fc on chip. The procedure:
as §2

Experiment [12] has as its target T6, recombinant murine BCMA Fc(kih). Nature of the experiment: SPR Biacore, bivalent avidity, BCMA-Fc on chip. As for the experimental part:
as §2

Experiment [13] addresses T3, human BCMA on myeloma cells (H929, U266). Nature of the experiment: cell-based or functional assay.
Experiment [14] shares this target. In words: cell-based or functional assay. This is another data set of the same source.
Experiment [15] has the same target. In words: flow cytometry, H929 cells. As for the experimental part:
as §1

T4 sequence (P15328 25-233 limits assumed): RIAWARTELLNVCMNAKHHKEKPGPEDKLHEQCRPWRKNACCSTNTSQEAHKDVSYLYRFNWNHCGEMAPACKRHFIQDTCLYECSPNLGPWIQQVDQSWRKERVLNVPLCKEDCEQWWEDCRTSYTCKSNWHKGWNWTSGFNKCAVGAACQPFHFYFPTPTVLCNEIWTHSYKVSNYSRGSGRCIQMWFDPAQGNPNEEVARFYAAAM
T2 sequence (P15328 25-234): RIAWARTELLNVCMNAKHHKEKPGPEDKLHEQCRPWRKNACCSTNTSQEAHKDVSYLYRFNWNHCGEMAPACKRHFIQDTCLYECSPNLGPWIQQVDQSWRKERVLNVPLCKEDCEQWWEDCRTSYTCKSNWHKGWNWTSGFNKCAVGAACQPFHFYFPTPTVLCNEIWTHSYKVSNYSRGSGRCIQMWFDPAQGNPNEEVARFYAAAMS
T1 sequence (P35846 25-232 limits assumed): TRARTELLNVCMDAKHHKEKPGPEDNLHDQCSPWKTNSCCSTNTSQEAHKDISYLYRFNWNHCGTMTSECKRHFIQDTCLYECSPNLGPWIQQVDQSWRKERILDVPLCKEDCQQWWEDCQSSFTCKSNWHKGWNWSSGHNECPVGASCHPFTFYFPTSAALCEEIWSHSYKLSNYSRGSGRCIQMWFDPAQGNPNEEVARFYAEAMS

B1: 14E4 Fab (Fab, V domains shown)
VH: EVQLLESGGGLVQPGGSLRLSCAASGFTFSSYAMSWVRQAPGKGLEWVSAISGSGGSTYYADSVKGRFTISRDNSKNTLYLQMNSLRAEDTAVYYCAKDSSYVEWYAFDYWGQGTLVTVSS
VL: EIVLTQSPGTLSLSPGERATLSCRASQSVSSSYLAWYQQKPGQAPRLLIYGASSRATGIPDRFSGSGSGTDSTLTISRLEPEDFAVYYCQQPTSSPITFGQGTKVEIK
notes: as m51
As for B1, in experiment [1], the Kd turned out to be 6.09 nM.

B2: DP47 GS TCB (2+1 Crossfab-IgG P329G LALA inverted, untargeted TCB) (bispecific antibody)
heavy 1: not shown
heavy 2: not shown
light 1: not shown
light 2: QAVVTQEPSLTVSPGGTVTLTCGSSTGAVTTSNYANWVQEKPGQAFRGLIGGTNKRAPGTPARFSGSLLGGKAALTLSGAQPEDEAEYYCALWYSNLWVFGGGTKLTVLSSASTKGPSVFPLAPSSKSTSGGTAALGCLVKDYFPEPVTVSWNSGALTSGVHTFPAVLQSSGLYSLSSVVTVPSSSLGTQTYICNVNHKPSNTKVDKKVEPKSC
notes: negative control; also called DP47 TCB; DP47-TCB
Take B2: the binding result in experiment [2] is “no binding”; in experiment [3], “no binding (tested: 500 nM)”.

B3: 15H7 Fab (Fab, V domains shown)
VH: QVQLVQSGAEVKKPGASVKVSCKASGYTFTSYYMHWVRQAPGQGLEWMGIINPSGGSTSYAQKFQGRVTMTRDTSTSTVYMELSSLRSEDTAVYYCARNYYLFSTSFDYWGQGTLVTVSS
VL: QAVVTQEPSLTVSPGGTVTLTCGSSTGAVTTSNYANWVQEKPGQAFRGLIGGTNKRAPGTPARFSGSLLGGKAALTLSGAQPEDEAEYYCALWYSNLWVFGGGTKLTVL
notes: as m35
B3 showed a Kd in experiment [4] of 13.4 nM.

B4: pSCHLI372 anti-BCMA IgG (antibody, V domains shown)
VH: EVQLVESGGGLVKPGGSLRLSCAASGFTFSNSGMIWVRQAPGKGLEWVGHIRSKTDGGTTDYAAPVKGRFTISRDDSKNTLYLQMNSLKTEDTAVYYCTTGGSGSFDYWGQGTLVTVSS
VL: B3 VL
notes: also called pSCHLI372 IgG; anti-BCMA IgG pSCHLI372
As for B4, the Kd in experiment [5] worked out at 114 nM; in experiment [6], 1310 nM; in experiment [7], 8.5 nM; in [8], 42.7 nM; in experiment [9], 3.6 nM; in [10] it was 25.7 nM. Moreover, the binding result with Fc fused huTACI-R is “no binding”.

B5: pSCHLI333 anti-BCMA IgG (antibody, V domains shown)
VH: QVQLVQSGAEVKKPGASVKVSCKASGYMFSSFGMSWVRQAPGQGLEWMGWIYPVGQGTWYAQKFQGRVTMTRDTSTSTVYMELSSLRSEDTAVYYCARVSYPPSHFDYWGQGTLVTVSS
VL: B3 VL
Take B5: the Kd in experiment [11] is 2.5 nM; in [12] it was 19.6 nM.

B6: pSCHLI372-TCB CLC (bispecific antibody)
heavy 1: not shown
heavy 2: EVQLVESGGGLVKPGGSLRLSCAASGFTFSNSGMIWVRQAPGKGLEWVGHIRSKTDGGTTDYAAPVKGRFTISRDDSKNTLYLQMNSLKTEDTAVYYCTTGGSGSFDYWGQGTLVTVSSASTKGPSVFPLAPSSKSTSGGTAALGCLVKDYFPEPVTVSWNSGALTSGVHTFPAVLQSSGLYSLSSVVTVPSSSLGTQTYICNVNHKPSNTKVDKKVEPKSCDKTHTCPPCPAPEAAGGPSVFLFPPKPKDTLMISRTPEVTCVVVDVSHEDPEVKFNWYVDGVEVHNAKTKPREEQYNSTYRVVSVLTVLHQDWLNGKEYKCKVSNKALGAPIEKTISKAKGQPREPQVCTLPPSRDELTKNQVSLSCAVKGFYPSDIAVEWESNGQPENNYKTTPPVLDSDGSFFLVSKLTVDKSRWQQGNVFSCSVMHEALHNHYTQKSLSLSPGK
light: QAVVTQEPSLTVSPGGTVTLTCGSSTGAVTTSNYANWVQEKPGQAFRGLIGGTNKRAPGTPARFSGSLLGGKAALTLSGAQPEDEAEYYCALWYSNLWVFGGGTKLTVLGQPKAAPSVTLFPPSSEELQANKATLVCLISDFYPGAVTVAWKADSSPVKAGVETTTPSKQSNNKYAASSYLSLTPEQWKSHRSYSCQVTHEGSTVEKTVAPTECS
notes: also called pSCHLI372 BCMAxCD3 TCB
In the case of B6, in [13], the “EC50 redirected T-cell killing, H929 (Experiment 1)” value was 450 pM and 0.08 µg/ml; the “EC50 redirected T-cell killing, H929 (Experiment 2)” value is 900 pM and 0.17 µg/ml. For the same molecule, in experiment [14], the “EC50 redirected T-cell killing, U266” value is 5700 pM and 1.1 µg/ml. Further, the 50% effective concentration (EC50) in [15] was 345 nM and 65.9 µg/mL. Further, in experiment [5], the Kd is 63 nM. In addition, the Kd in [6] turned out to be 344 nM.

The record behind these values is patent US20170253670A1 (Hoffmann-La Roche, published 2017).
